These results are taken from the supplement of paper PMC12042874.

± gives the uncertainty stated by the source.

The data set in a line: amyloid nucleation score (Sup35N fusion, yeast selection) (log enrichment); library NNK2; higher = more nucleation; inactive = no reads after selection. The gist of the method: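 DiMSum was used to calculate nucleation scores as log enrichment of output over input reads, centred on the mode score of non-aggregating sequences. Sequences with fewer than 100 input reads were not scored. Input and output came from Illumina sequencing of plasmid inserts in psi-negative yeast expressing peptides of 20 random codons fused to Sup35N, induced 24 hours with 100 μM copper sulfate and then grown 7 days at 30°C on medium lacking adenine and uracil.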
On to ERRRYLALLQMSMCATGLCY, for which the amyloid nucleation score was -0.219 ± 0.43. Next, YLIIKCDKRCVEDFDALLE: 4.4 ± 0.071. Next, TTFTIWAYMVAHQYLEIGCI: “inactive”.

On to SFVDMSYRFLVGVRFLVRPS, for which the amyloid nucleation score result is “inactive”. Under SYLHGDNQLGLSGASFRSRW stands “inactive”. Under SLSRRQLTIPPVTTRVIQSH stands 0.637 ± 0.25; under LYNVVSNTVKYCIFPC, 7.135 ± 0.043; under GGMPVFISVTVLYEWNDFLF, 6.671 ± 0.032. Next, VDRFPVLVPKGWHMRRWCIR: 0.669 ± 0.39; LRDIYNFGDSHYFRNYSVTE: -0.132 ± 0.31. YVVSQTVRWF: the amyloid nucleation score result was “inactive”. Under LINCSSTLITIYSRYNAMYF stands 5.415 ± 0.049; under LMAFCKLQDRNKTPLSSALF, “inactive”. Under VDSTFSHSSSFWELYRPTHL stands -1.41 ± 1.1. Next, TMCWPMILK: -0.072 ± 0.27; LDRMSRIRGSCRYACVL: 1.15 ± 0.41. With GTTSCISDLQWMGYIVKL, the amyloid nucleation score came to 0.039 ± 0.46. Under GSCNASVPVQV stands 0.057 ± 0.76; under DCAWNFWFSLVYRLVISGHS, -0.38 ± 0.6. Next, FFSMRVIIMFERNSSVFAVQ: 4.1 ± 0.11; SLNAL: -0.296 ± 0.49; NYMRYTYHSMCVLWFTVGEC: 0.864 ± 0.41. Consider FFTCFTYCDCHNPVMI, for which the amyloid nucleation score was found to be 3.28 ± 0.12. Consider ACSDGVAMECKV, for which the amyloid nucleation score was -0.429 ± 0.44.

YNFGEFACYHH had an amyloid nucleation score of 3.81 ± 0.099. Under QLVLT stands 1.14 ± 0.21.

NVLDASRNLE returned an amyloid nucleation score of 1.14 ± 0.42. In turn, TRWLGGISMGNSVFVLIRTL had an amyloid nucleation score of 0.416 ± 0.51. Under ETFVYYFNVSSLVT stands 0.11 ± 0.38.

Take RLEALRCLSYITSSSLYRCP: the amyloid nucleation score amounted to 0.163 ± 0.41. Under LNNYSSGFRGMIVFFVVVYV stands -1.06 ± 0.61; under YSLFTT, -0.451 ± 0.76.

As for FVINSCENVARTHRVCQLAM, the amyloid nucleation score was -0.115 ± 0.37.

The substance FFDSSCIFITHLL registered an amyloid nucleation score of 1.77 ± 0.18. Under PWFMFPCRHRYRQYLWCFCA stands 2.52 ± 0.068; under GYVSRDSFVLYWPSRNDCLA, 0.276 ± 0.22; under YCGKTIQCSRRAPTAEDLGM, 2.76 ± 0.12. Next, MLYLCMFTERVDDNTFALYR: “inactive”. Under VDTRRMARKS stands 1.28 ± 0.27; under EALMMVYGWEKTD, 0.733 ± 0.24. As to RWATAKRI, the amyloid nucleation score is 0.194 ± 0.49. As for QSETN, the amyloid nucleation score is -0.264 ± 0.29. As for QIYSMDMQRMNKCCCEDGEV, the amyloid nucleation score entry is “inactive”. As to RFSLYNLIIEVSAVVEFLWT, the amyloid nucleation score result was “inactive”. IREYHMFDGHMRDRCFGQVK had an amyloid nucleation score of -0.048 ± 0.65. Under WISIRSTNRRKLRHRSYATV stands 0.56 ± 0.56. Next, IRSFEFHNAWMCVYIWSKLY: -0.271 ± 1. Next, ALATFVTPVAESA: 4.05 ± 0.05; HVADTGLIMQYVVSGLRVAG: 0.602 ± 0.22; WLLPTTSLLSSQPAQAFRDH: -0.363 ± 0.49.

As to RIKMGSSGNLCFIWSMHMYD, the amyloid nucleation score is 6.496 ± 0.044. For MKLVECNMDGCDTNTSFGWL, the amyloid nucleation score was -0.884 ± 0.78. Next, LFGHLVLYYPFSSTINCVVV: 5.59 ± 0.056.

For the substance NMLKGMCWVTLCIWMYMRLC, the amyloid nucleation score was determined as 4.09 ± 0.057. Take WELKAHVDV: the amyloid nucleation score is 0.737 ± 0.54. Under GQYLLSTIIVFGCSMAGFAA stands 2.52 ± 0.12. Under GFPRKSTDDLNILLNL stands -1.47 ± 0.78. Next, YMSATVRCIYSRLY: 3.05 ± 0.13; SPVICRVRGGLFINMSEYNV: “inactive”. For the substance PNRTFLLKVGA, the amyloid nucleation score was -1.1 ± 1.1. Under TNVLYMLWTFKVDERY stands 5.964 ± 0.049. Take EKVDCSVLAGNNWTWVNISL: the amyloid nucleation score came out at 6.7 ± 0.079. Next, SYRRKYSCRLESINTCAVLC: -0.302 ± 0.47; YKRCYIKIEWFQMCFNVVTR: “inactive”. Next, DGDICLLRYFFLTMILELAI: -2.02 ± 0.78; IRSNIGNSWNTLIFVYCCYT: 6.415 ± 0.049. Next, TSPNFLSRLQVRYYRIRVSL: -0.026 ± 0.35; VDRESRFWWEGVQGFLDYWV: -0.614 ± 0.79. Substance LMIAFKQRFIPS displayed an amyloid nucleation score of 1.12 ± 0.4. Under NLNFKDGPGDLTCMRDRAFS stands -0.508 ± 0.63; under RMWDSSCSLRGMRLGVYRAR, 0.396 ± 0.53.

In turn, KRARR returned an amyloid nucleation score of 0.356 ± 0.4.

As to VTVVWESDSFRYVYWLNRLE, the amyloid nucleation score came to 0.926 ± 0.48. Under SPAWRNGDPRKKATPTHTGI stands 0.004 ± 1.1; under MKFKYTNHVYRIDCRSAT, 0.551 ± 0.38; under LDVKERTCL, 0.261 ± 0.54. For TYIRSVYDAFAC, the amyloid nucleation score result was “inactive”. With GRFVSVKHYS, the amyloid nucleation score result was “inactive”. Next, MYYLNSFGRELLSGLKCYKT: -0.698 ± 0.5; TSARRQLDDQRAWPEMAN: 0.239 ± 0.62. Turning to NPYINLLRFIDSDSSALV, the amyloid nucleation score is -1.35 ± 1.1.

For the substance KERRSSVLVKNRVCSNGYF, the amyloid nucleation score entry is “inactive”. SLTYRYVHVLC: the amyloid nucleation score was 5.86 ± 0.04. Under FDSPYPMPMSHSVNSSLIIW stands -0.155 ± 0.3. Next, RRYMSVDSK: “inactive”. Under RCLLTYSVEYWRIFGTSPDS stands 0.157 ± 0.5. SSIVEDGLTLLNGGNRIDGY had an amyloid nucleation score of 0.445 ± 0.31. Next, SRICIFDDCNRRLARYWGLR: 0.057 ± 0.76; YSSNGPGEKWRYR: 2.04 ± 0.09; TCLTGKAVSVDHS: “inactive”. Next, CTAYNITYMTATSRGMSC: “inactive”; ICFNTSLVPECKHSRSEFDS: 0.643 ± 0.64; YMSARVMFGGEPCCCGSGGE: 1.74 ± 0.27.

LMQVSA displayed an amyloid nucleation score of 0.829 ± 0.41.

In the case of DIHRPQRYISKYSSTREWVG, the amyloid nucleation score was -0.224 ± 0.32. Under SDINRVVGLPRTRLALRSKR stands -0.447 ± 0.54; under NLFLLYEAW, -0.155 ± 0.2. Next, CNDGMTTSDYWWCSARLDPY: 0.345 ± 0.2; HYCSVRMWLTTKEADPRTSL: 0.739 ± 0.31; NSLANDTQIRKNCLSIV: -0.474 ± 1.1. Regarding TMSGCSLLCWEYNASQDLSN, the amyloid nucleation score was -0.071 ± 0.62. Next, SIPSCCWSLMGFNIIELDDG: 0.173 ± 1.1; FTLKINVPETGTIVLPELGS: 0.235 ± 0.48. Next, RAYPNLENFLLWRMSNSYLC: -0.542 ± 0.63; RDVVSLGLQEGNSRMRHTGG: 0.82 ± 0.23; CMTSKVLRLDYRRMMVNIDC: -0.58 ± 0.42. Next, FDTRITMMCALWTFPAT: 7.15 ± 0.079; KFYVCCATCGCDKINELPVT: 8.088 ± 0.06; LWTHGSYSVLRLIEPVGAQE: 0.971 ± 0.51. Consider LVVLNYGVIHNMNSWPWRWG, for which the amyloid nucleation score is 9.861 ± 0.047. Next, YGFLCRL: “inactive”. Next, YTNAFRPRSVRLTVIRIGQY: 4.07 ± 0.11; GLSDQKGTVALRFFYFDFYS: 2.73 ± 0.074; DEGKA: -0.507 ± 0.42. Next, HWSYKDSLWVLDAAESVNMS: 0.622 ± 0.66.

On to SEWSTYLCSSNI, for which the amyloid nucleation score result is “inactive”.

For the substance MDYNLIKCAPWT, the amyloid nucleation score entry was “inactive”. As for WINVGCVCLMVMHILPI, the amyloid nucleation score came out at 5.4 ± 0.073.

Regarding ITSVKHCAS, the amyloid nucleation score is 1.05 ± 0.53.

On to IFYGRYGAILWGAKCLY, for which the amyloid nucleation score came out at 1.96 ± 0.21.

As for NNRYELCSSQH, the amyloid nucleation score result was “inactive”. Under NCIRSNDRMMFPLCVTLSCS stands 0.335 ± 0.39; under TWHKFVSCDCGLH, 0.677 ± 0.47; under DANDSSWEGG, 0.669 ± 0.74. Under IILTVNRRMDLEGYFYFMFE stands -0.93 ± 1. As for FCRDLVSGLIMTMPLCTDEM, the amyloid nucleation score came out at 0.079 ± 0.5. Under YCMASLSSLNLVRHWDDESS stands -1.01 ± 1.1. Under RDLASSSS stands -1.1 ± 0.41; under MGSNAWVLNNACHGLFTSAS, 0.386 ± 0.35; under EGNNCW, 0.22 ± 0.23. Next, DDMTGDHRPSFRSMIMVGVI: 0.918 ± 0.67. In turn, CFSLYSCKDSINDMLKRSQN came in with an amyloid nucleation score of -1.12 ± 1.1. Under FLCTNGGPLALSNGWVTSGE stands 0.274 ± 0.62; under RSCMMCTT, 0.266 ± 0.41; under YIGCNNYEGKNKCVIFLSFS, 6.079 ± 0.05. Under SGSVLFGRVYRRRFLFWVVD stands “inactive”. Under YNYVPLDFVRPVSDWSLELR stands -0.405 ± 0.39.

GRLGSAPQKR had an amyloid nucleation score of 0.686 ± 0.32.

Consider MNLPKFNSYLMDSANARASP, for which the amyloid nucleation score is 0.58 ± 0.19.
